US20020082273A1, “Agents for use in the treatment of alzheimer's disease” (priority 1998, published 2002)

Test system: Aβ1-40 or Aβ1-42 SDS-resistant polymers
Test: Dissolution of in vitro Cu^2+-induced SDS-resistant Aβ polymers
Type: biochemical, human

B1: proteinase K: protease (protein, UniProt P06873 106-384, looked up)
Proteinase K: AAQTNAPWGLARISSTSPGTSTYYYDESAGQGSCVYVIDTGIEASHPEFEGRAQMVKTYYYSSRDGNGHGTHCAGTVGSRTYGVAKKTQLFGVKVLDDNGSGQYSTIIAGMDFVASDKNNRNCPKGVVASLSLGGGYSSSVNSAAARLQSSGVMVAVAAGNNNADARNYSPASEPSVCTVGASDRYDRRSSFSNYGSVLDIFGPGTSILSTWIGGSTRSISGTSMATPHVAGLAAYLMTLGKTTAASACRYIADTANKGDLSNIPFGTVNLLAYNNYQA
  degradation of SDS-resistant Aβ polymers: complete degradation
